# Laboratory results published in article PMC11178655, “Dosimetry and pharmacokinetics of [^177Lu]Lu-satoreotide tetraxetan in patients with progressive neuroendocrine tumours” (European Journal of Nuclear Medicine and Molecular Imaging, 2024).
# Where a SMILES comes first, the peptide text is derived from it. Bridges are numbered along the chain shown (N, C = ends). [ ]: non-standard residue; d: D form. The star is where a group is joined. DOTA = O=C(O)CN1CCN(CC(=O)O)CCN(CC(=O)*)CCN(CC(=O)O)CC1; dPhe(4-NHCONH2) = NC(=O)Nc1ccc(C[C@@H](N)C(=O)O)cc1; Dihydroorotyl(S) = O=C1C[C@@H](C(=O)*)NC(=O)N1; Phe(4-Cl) = N[C@@H](Cc1ccc(Cl)cc1)C(=O)O; Phe(4-NH2) = Nc1ccc(C[C@H](N)C(=O)O)cc1
# Test system: patients with progressive, SSTR-positive NETs
# Test: Patient-specific image-based dosimetry (NUKDOS) of tumours and organs, phase I/II trial
# Format: in vivo, human
# Details: median (range)
# Method: In both parts A and B of the study, patients underwent planar whole-body imaging at 4 h and 1, 2, 3, and 6 days after each [^177Lu]Lu-satoreotide tetraxetan treatment cycle. Patients in part A also underwent single-photon emission computed tomography/computed tomography (SPECT/CT) at 24 h after each [^177Lu]Lu-satoreotide tetraxetan cycle. Those in part B underwent SPECT/CT, immediately before or after planar scintigraphy, at 4 h, and 1, 2, 3, and 6 days after each [^177Lu]Lu-satoreotide tetraxetan administration. Full details of the image acquisition methodology are provided in the Supplementary Information.
# Delineation of tumour volumes was performed on anatomical SPECT/CT images after each [^177Lu]Lu-satoreotide tetraxetan administration. Tumours with a longest diameter < 2 cm were not analysed due to the difficulty in correcting for partial volume effects caused by the limited spatial resolution of the SPECT/CT systems. For study inclusion in part A, one tumour lesion ≥ 2 cm must have been present for eligibility; in part B, two or more tumour lesions ≥ 2 cm must have been present, each with an uptake on SSTR imaging higher than that of normal liver parenchyma (target lesion on [^68Ga]Ga-DOTA-TATE or -DOTA-TOC positron emission tomography: maximum standardised uptake value [SUVmax] ≥ 2x the mean SUV [SUVmean] of liver background; or ^111In-scintigraphy/SPECT: Krenning score 3 or 4 [uptake > normal liver, or uptake > spleen or kidneys, respectively [26]]).
# Reconstruction parameters were set up to produce isotropic voxels of < 5 mm; voxels were continuous throughout the field of view. Anatomic coverage of the acquisition was determined according to the patients’ tumour locations on the planar whole-body scan acquisition with liver, both kidneys and spleen in the same bed position. For organs showing [^177Lu]Lu-satoreotide tetraxetan uptake, regions of interest (ROIs)/volumes of interest (VOIs) were drawn manually over the whole organs of interest (whole body, left and right kidneys, liver, spleen, and bone marrow), using the NUKDOS software for planar whole-body scans and the SPECT/CT acquired in part A [27]. VOIs for the same organs were drawn for all SPECT/CT images acquired in part B. All ROIs/VOIs were then used for activity quantification. Time-integrated activity coefficients (TIACs) for a given source volume were computed by integrating the time-activity curves. Full details of the tumour delineation and activity quantification methodology are provided in the Supplementary Information.
# Patient-specific dosimetry calculations were performed after each treatment cycle in both parts A and B, using the absorbed dose calculation features of the NUKDOS software for image-based dosimetry calculations. The NUKDOS software was chosen as it allowed for an integral approach to organ dosimetry (including image quantification, time-activity curve-fitting and dosimetry calculation). For the bone marrow, both image-based and blood-based calculations were performed in part A [28, 29]. In part B, only image-based bone marrow dosimetry was performed. Organ Level INternal Dose Assessment/EXponential Modelling (OLINDA/EXM) version 1.0 software, the most widely used version at the time of the study, was used to perform model-based dosimetry calculations, which were only performed after the first [^177Lu]Lu-satoreotide tetraxetan cycle for patients in part B. To generate organ-specific absorbed doses, TIACs were used as input data. Full details on OLINDA/EXM software settings and organ-specific TIAC calculation methods are provided in the Supplementary Information.
# All images were acquired with a 20% energy window around the main photopeak of ^177Lu (208 keV). For scatter correction, the triple-energy window method was applied based on the recommendation of the Committee on Medical Internal Radiation Dose. Whole-body images were acquired with a scanning time of 20 cm/min in a 256 × 1,024 matrix. […]
# [1] = Part A (4.5 GBq, 300 µg), image-based dosimetry, n = 11
# [2] = Part A (4.5 GBq, 300 µg), n = 7
# [3] = Part A (4.5 GBq, 300 µg), n = 9
# [4] = Part A (4.5 GBq, 300 µg), n = 11
# [5] = Part A (4.5 GBq/cycle), image-based dosimetry, n = 10
# [6] = Part A (4.5 GBq/cycle), n/n-les 9/16
# [7] = Part A and B, image-based dosimetry, n = 21
# [8] = Part B Cohort 1 (6.0 GBq, reduced to 4.5 GBq after three patients; 300 µg), n = 6
# [9] = Part B Cohort 1, image-based dosimetry, n = 1
# [10] = Part B Cohort 3 (4.5 GBq, 300 µg), n = 9
compound,measurement,setting,value
"C[C@@H](O)[C@@H]1NC(=O)[C@H](CCCCN)NC(=O)[C@@H](Cc2ccc(NC(N)=O)cc2)NC(=O)[C@H](Cc2ccc(NC(=O)[C@@H]3CC(=O)NC(=O)N3)cc2)NC(=O)[C@H](NC(=O)[C@H](Cc2ccc(Cl)cc2)NC(=O)CN2CCN(CC(=O)O)CCN(CC(=O)O)CCN(CC(=O)O)CC2)CSSC[C@@H](C(=O)N[C@H](Cc2ccc(O)cc2)C(N)=O)NC1=O [[^177Lu]Lu-satoreotide tetraxetan, metal not drawn] ({DOTA}-[Phe(4-Cl)][dC][Phe(4-NH2)](Dihydroorotyl(S))[dPhe(4-NHCONH2)]KTC[dY]-NH2; disulfide 2-7 (inferred); C-terminus assumed)","Cycle 1 ADC, Bone marrow",[1],0.1 (0.0–0.2) Gy/GBq
same,"Cycle 3 ADC, Bone marrow",[1],0.1 (0.0–0.2) Gy/GBq
same,"Cycle 1 ADC, Liver",[2],0.2 (0.1–0.3) Gy/GBq
same,"Cycle 3 ADC, Liver",[2],0.2 (0.1–0.4) Gy/GBq
same,"Cycle 1 ADC, Spleen",[3],0.8 (0.2–1.8) Gy/GBq
same,"Cycle 3 ADC, Spleen",[3],0.5 (0.3–1.0) Gy/GBq
same,"Cycle 1 ADC, Kidneys",[4],1.1 (0.5–1.9) Gy/GBq
same,"Cycle 1 ADC, Tumours",[4],2.6 (0.4–14.3) Gy/GBq
same,"Cycle 3 ADC, Kidneys",[4],1.0 (0.7–1.8) Gy/GBq
same,"Cycle 3 ADC, Tumours",[4],1.7 (0.3–5.0) Gy/GBq
same,"Ratio of ADCs Cycle 2/Cycle 1 (300 vs. 300 µg), Bone marrow",[5],89.5 (54.7–152) %
same,"Ratio of ADCs Cycle2/Cycle 3 (300 vs. 300 µg), Bone marrow",[5],109 (23.9–297) %
same,"Ratio of ADCs Cycle 2/Cycle 1 (300 vs. 300 µg), Spleen","Part A (4.5 GBq/cycle), n = 9",93.0 (50.0–270) %
same,"Ratio of ADCs Cycle2/Cycle 3 (300 vs. 300 µg), Spleen","Part A (4.5 GBq/cycle), n = 9",127 (81.1–334) %
same,"Ratio of ADCs Cycle 2/Cycle 1 (300 vs. 300 µg), Body","Part A (4.5 GBq/cycle), n = 11",108 (38.3–142) %
same,"Ratio of ADCs Cycle 2/Cycle 1 (300 vs. 300 µg), Kidney","Part A (4.5 GBq/cycle), n = 11",116 (55.8–140) %
same,"Ratio of ADCs Cycle2/Cycle 3 (300 vs. 300 µg), Body","Part A (4.5 GBq/cycle), n = 11",95.4 (69.5–119) %
same,"Ratio of ADCs Cycle2/Cycle 3 (300 vs. 300 µg), Kidney","Part A (4.5 GBq/cycle), n = 11",101 (80.6–179) %
same,"Ratio of ADCs Cycle 2/Cycle 1 (300 vs. 300 µg), Liver lesions",[6],91.8 (28.6–156) %
same,"Ratio of ADCs Cycle2/Cycle 3 (300 vs. 300 µg), Liver lesions",[6],127 (73.3–343) %
same,"Ratio of ADCs Cycle2/Cycle 3 (300 vs. 300 µg), All lesions","Part A (4.5 GBq/cycle), n/n-les 11/23",125 (73.3–343) %
same,"Ratio of ADCs Cycle 2/Cycle 1 (300 vs. 300 µg), All lesions","Part A (4.5 GBq/cycle), n/n-les 11/24",83.4 (28.6–156) %
same,"Cycle 3 ADC, Bone marrow",[7],0.1 (0.0–0.2) Gy/GBq
same,"Ratio of Cycle 3/ Cycle 1 ADCs, Bone marrow",[7],105 (22.4–400) %
same,"Cycle 1 ADC, Bone marrow","Part A and B, image-based dosimetry, n = 29",0.1 (0.0–0.6) Gy/GBq
same,"Ratio of Cycle 3/ Cycle 1 ADCs, Liver","Part A and B, n = 7",88.5 (43.8–132) %
same,"Ratio of Cycle 3/ Cycle 1 ADCs, Spleen","Part A and B, n = 18",83.2 (40.9–231) %
same,"Ratio of Cycle 3/ Cycle 1 ADCs, Tumours","Part A and B, n = 23",78.6 (16.0–195) %
same,"Ratio of Cycle 3/ Cycle 1 ADCs, Kidneys","Part A and B, n = 25",98.6 (59.1–198) %
same,"Cycle 3 ADC, Liver","Part A and B, patient-specific dosimetry, n = 7",0.2 (0.1–0.4) Gy/GBq
same,"Cycle 1 ADC, Liver","Part A and B, patient-specific dosimetry, n = 8",0.2 (0.1–0.3) Gy/GBq
same,"Cycle 3 ADC, Spleen","Part A and B, patient-specific dosimetry, n = 19",0.7 (0.3–1.5) Gy/GBq
same,"Cycle 3 ADC, Tumours","Part A and B, patient-specific dosimetry, n = 24",4.0 (0.3–70.3) Gy/GBq
same,"Cycle 3 ADC, Kidneys","Part A and B, patient-specific dosimetry, n = 26",0.8 (0.4–1.8) Gy/GBq
same,"Cycle 1 ADC, Spleen","Part A and B, patient-specific dosimetry, n = 27",0.8 (0.2–1.8) Gy/GBq
same,"Cycle 1 ADC, Tumours","Part A and B, patient-specific dosimetry, n = 33",5.0 (0.4–83.3) Gy/GBq
same,"Cycle 1 ADC, Kidneys","Part A and B, patient-specific dosimetry, n = 35",0.9 (0.4–1.9) Gy/GBq
same,"Ratio of Cycle 3/ Cycle 1 ADCs, Bone marrow","Part A, image-based dosimetry, n = 11",101 (22.4–302) %
same,"Ratio of Cycle 3/ Cycle 1 ADCs, Liver","Part A, n = 7",88.5 (43.8–132) %
same,"Ratio of Cycle 3/ Cycle 1 ADCs, Spleen","Part A, n = 9",61.5 (40.9–231) %
same,"Ratio of Cycle 3/ Cycle 1 ADCs, Kidneys","Part A, n = 11",106 (59.1–139) %
same,"Ratio of Cycle 3/ Cycle 1 ADCs, Tumours","Part A, n = 11",76.7 (16.0–195) %
same,"Cycle 1 ADC, Bone marrow","Part B Cohort 1 (6.0 GBq, reduced to 4.5 GBq after three patients; 300 µg), image-based dosimetry, n = 6",0.1 (0.1–0.6) Gy/GBq
same,"Cycle 1 ADC, Liver","Part B Cohort 1 (6.0 GBq, reduced to 4.5 GBq after three patients; 300 µg), n = 1",0.2 (0.2–0.2) Gy/GBq
same,"Cycle 1 ADC, Tumours","Part B Cohort 1 (6.0 GBq, reduced to 4.5 GBq after three patients; 300 µg), n = 5",3.9 (1.9–83.3) Gy/GBq
same,"Cycle 1 ADC, Kidneys",[8],0.7 (0.6–1.0) Gy/GBq
same,"Cycle 1 ADC, Spleen",[8],1.0 (0.5–1.1) Gy/GBq
same,"Cycle 3 ADC, Bone marrow",[9],0.1 (0.1–0.1) Gy/GBq
same,"Ratio of Cycle 3/ Cycle 1 ADCs, Bone marrow",[9],64.3 (64.3–64.3) %
same,"Cycle 3 ADC, Kidneys","Part B Cohort 1, n = 1",0.7 (0.7–0.7) Gy/GBq
same,"Cycle 3 ADC, Spleen","Part B Cohort 1, n = 1",0.5 (0.5–0.5) Gy/GBq
same,"Ratio of Cycle 3/ Cycle 1 ADCs, Kidneys","Part B Cohort 1, n = 1",111 (111–111) %
same,"Ratio of Cycle 3/ Cycle 1 ADCs, Spleen","Part B Cohort 1, n = 1",82.3 (82.3–82.3) %
same,"Cycle 1 ADC, Bone marrow","Part B Cohort 3 (4.5 GBq, 300 µg), image-based dosimetry, n = 6",0.1 (0.1–0.1) Gy/GBq
same,"Cycle 1 ADC, Spleen","Part B Cohort 3 (4.5 GBq, 300 µg), n = 6",1.0 (0.2–1.5) Gy/GBq
same,"Cycle 1 ADC, Kidneys",[10],0.9 (0.5–1.2) Gy/GBq
same,"Cycle 1 ADC, Tumours",[10],6.8 (2.1–28.2) Gy/GBq
same,"Cycle 3 ADC, Bone marrow","Part B Cohort 3 (4.5 GBq, 300 µg; 700 µg at cycle 2), image-based dosimetry, n = 6",0.1 (0.0–0.1) Gy/GBq
same,"Cycle 3 ADC, Spleen","Part B Cohort 3 (4.5 GBq, 300 µg; 700 µg at cycle 2), n = 5",0.8 (0.3–1.1) Gy/GBq
